{"source": "patent US20100068208A1", "about": "“Degranulation inhibitor” (priority 2005, published 2010)", "key": {"[1]": {"system": "TGR12", "type": "cell-based, human", "conditions": "CHO-TGR12, 1 μM", "protocol": "CHO/dhfr^− cells (hereinafter CHO) were incubated in α-MEM (Invitrogen) supplemented with 10% fetal calf serum. After a termination codon in the TGR12-encoding nucleotide sequence was removed, a nucleotide sequence ligated with the nucleotide sequence encoding GFP (Wako Pure Chemical) [hereinafter briefly referred to as TGR12-GFP (DNA having the nucleotide sequence represented by SEQ ID NO: 31)] was incorporated into vector plasmid pAKKO-111H (the same vector plasmid as pAKKO1.11H described in Biochim. Biophys. Acta, 1219, 251-259 (1994)) for animal cell expression, and the vector plasmid was stably expressed to establish TGR12-GFP-expressed CHO cell line (hereinafter CHO-TGR12). CHO-TGR12 was incubated in nucleic acid-free α-MEM medium (Invitrogen) containing 10% dialyzed fetal calf serum.\nCHO-TGR12 was plated in a 96-well plate at a density of 30,000 cells/well. After incubation overnight, the medium was discarded and 100 μL/well of assay buffer [Hank's Balanced Salt Solution (Invitrogen), 20 mM HEPES (Dojin Chemical Laboratory) and 2.5 mM Probenecid (Sigma)] containing 4 μM Fluo3-AM (Dojin Chemical Laboratory) was added, which was then allowed to stand for an hour at 37° C. […] After the cells were washed with assay buffer, fluorescence reflecting changes in intracellular calcium levels was assayed on FLIPR (Molecular Device). Ten seconds after initiation of the assay, 50 μL of a sample was added at a rate of 50 μL/second. Fluorescence measurement was taken every 1 second during the first 60 seconds and then every 6 seconds during the next 120 seconds; the highest fluorescence intensity over a 3 minute period was taken as the maximum activity under the stimulation condition, representing the mean value of 3 wells. The EC50 values were determined using Graphpad PRISM 4 (Graphpad Software)."}, "[2]": {"biological_target": "T1, human TGR12 (Homo sapiens, UniProt Q96LB1)", "T1 construct": "expressed in transfected cells", "T1 sequence (Q96LB1 1-330)": "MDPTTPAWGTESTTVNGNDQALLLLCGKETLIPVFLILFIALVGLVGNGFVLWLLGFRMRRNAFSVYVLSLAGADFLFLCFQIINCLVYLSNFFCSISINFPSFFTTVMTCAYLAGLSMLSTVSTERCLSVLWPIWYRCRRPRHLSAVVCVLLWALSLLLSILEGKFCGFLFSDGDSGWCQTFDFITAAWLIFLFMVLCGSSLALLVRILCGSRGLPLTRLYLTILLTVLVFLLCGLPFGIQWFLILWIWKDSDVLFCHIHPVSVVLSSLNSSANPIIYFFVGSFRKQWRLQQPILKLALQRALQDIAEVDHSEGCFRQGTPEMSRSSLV", "assay": "Intracellular calcium increasing activity in RBL2H3-TGR12 (FLIPR)", "type": "cell-based", "conditions": "RBL2H3-TGR12, 1 μM", "protocol": "(§1) RBL-2H3 (hereinafter RBL2H3) was incubated in α-MEM (Invitrogen) supplemented with 10% fetal calf serum. Vector plasmid pcDNA3.1 for animal cell expression, in which the nucleotide sequence containing the initiation codon to the termination codon of human TGR12 (DNA having the nucleotide sequence represented by SEQ ID NO: 32) was incorporated, was stably expressed in RBL-2H3 to establish human TGR12-expressed RBL-2H3 cell line (hereinafter RBL2H3-TGR12). RBL2H3-TGR12 was incubated in α-MEM (Invitrogen) supplemented with 10% fetal calf serum and 200 μg/mL of Geneticin.\n(§2) The intracellular calcium increasing activity was assayed as follows. RBL2H3 and RBL2H3-TGR12 were plated in a 96-well plate at a density of 40,000 cells/well and incubated overnight. The medium was then discarded and 100 μL/well of 4 μM Fluo3-AM (Dojin Kagaku)-containing assay buffer [Hank's Balanced Salt Solution (Invitrogen), 20 mM HEPES (Dojin Kagaku) and 2.5 mM Probenecid (Sigma)] was added. The mixture was allowed to stand for an hour at 37° C. Various TGR12 (Peptide Institute, Inc.) or calcium ionophore A23187 (Wako Pure Chemical) was diluted in 0.05% CHAPS-containing assay buffer. After the cells were washed with the assay buffer, fluorescence emitted with changes in intracellular calcium was measured using FLIPR (Molecular Device). A sample, 50 μL, was added at a rate of 50 μL/sec. 10 seconds after initiation of the assay. Fluorescence was measured every 1 second during the first 60 seconds and every 6 seconds during the next 120 seconds. The highest fluorescence intensity during 3 minutes was made the maximum activity under the stimulation conditions, which was taken as an average of 3 wells. The EC50 values were calculated using Graphpad PRISM 4 (Graphpad Software)."}, "[3]": {"system": "RBL-2H3", "assay": "Intracellular calcium increasing activity in RBL2H3 (FLIPR)", "type": "cell-based", "conditions": "RBL2H3, 1 μM", "protocol": "as §1, §2"}, "[4]": {"biological_target": "TGR12-GFP (fused protein of human TGR12 and GFP, encoded by the DNA of SEQ ID NO: 31), stably expressed on CHO cells (CHO-TGR12 of Example 1) (human) (UniProt Q96LB1)", "assay": "cell-based or functional assay"}, "[5]": {"biological_target": "T2, human TGR12 (untagged) (human, UniProt Q96LB1 1-330)", "T2 sequence": "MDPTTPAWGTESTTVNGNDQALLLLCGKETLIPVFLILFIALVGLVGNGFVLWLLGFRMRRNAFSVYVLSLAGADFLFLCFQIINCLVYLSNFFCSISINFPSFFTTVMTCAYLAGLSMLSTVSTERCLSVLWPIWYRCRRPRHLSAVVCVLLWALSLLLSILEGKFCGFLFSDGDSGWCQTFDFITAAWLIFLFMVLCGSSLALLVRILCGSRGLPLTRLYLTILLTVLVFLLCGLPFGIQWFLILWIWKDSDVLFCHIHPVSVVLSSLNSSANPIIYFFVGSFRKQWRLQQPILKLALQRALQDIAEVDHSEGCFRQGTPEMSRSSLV", "assay": "cell-based or functional assay"}, "[6]": {"biological_target": "T3, TGR12-GFP (fused protein of human TGR12 and GFP, encoded by the DNA of SEQ ID NO: 31), stably expressed on … (human, UniProt Q96LB1 1-330)", "T3 sequence": "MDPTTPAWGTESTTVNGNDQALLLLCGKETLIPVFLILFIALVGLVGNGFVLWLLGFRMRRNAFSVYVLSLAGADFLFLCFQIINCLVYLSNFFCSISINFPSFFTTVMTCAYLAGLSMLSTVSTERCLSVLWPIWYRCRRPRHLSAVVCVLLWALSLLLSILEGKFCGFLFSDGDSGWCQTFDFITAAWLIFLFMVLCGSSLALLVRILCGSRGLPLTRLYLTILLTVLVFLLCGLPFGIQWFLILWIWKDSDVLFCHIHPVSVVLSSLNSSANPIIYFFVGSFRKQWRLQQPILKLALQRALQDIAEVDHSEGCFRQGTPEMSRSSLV", "assay": "cell-based or functional assay"}}, "note": "Where no end group is shown, it is not given here."}
{"molecule": "CNc1ccc2oc(C[C@H]3O[C@@]4(CC[C@H]3C)O[C@H]([C@H](C)C(=O)c3ccc[nH]3)[C@H](C)C[C@H]4C)nc2c1C(=O)O", "note": "[A23187]", "values": [{"measurement": "maximum activity in the calcium increasing effect", "setting": "[1]", "result": 27379}, {"measurement": "maximum activity in the calcium increasing effect", "setting": "[2]", "result": 25624}, {"measurement": "maximum activity in the calcium increasing effect", "setting": "[3]", "result": 25338}]}
{"molecule": "human PAMP12 (proadrenomedullin N-terminal 20 peptide (9-20)) (from UniProt P35318 30-41)", "values": [{"measurement": "EC50 in the calcium increasing effect on CHO-TGR12", "setting": "[4]", "result": 98, "unit": "nM"}, {"measurement": "maximum activity in the calcium increasing effect (FLIPR), CHO-TGR12, at 0.3 nM (fluorescence intensity)", "setting": "[4]", "result": 255}, {"measurement": "maximum activity in the calcium increasing effect (FLIPR), CHO-TGR12, at 3 nM (fluorescence intensity)", "setting": "[4]", "result": 1620}, {"measurement": "maximum activity in the calcium increasing effect (FLIPR), CHO-TGR12, at 30 nM (fluorescence intensity)", "setting": "[4]", "result": 22300}, {"measurement": "maximum activity in the calcium increasing effect (FLIPR), CHO-TGR12, at 300 nM (fluorescence intensity)", "setting": "[4]", "result": 24100}, {"measurement": "maximum activity in the calcium increasing effect (FLIPR), CHO-TGR12, at 3000 nM (fluorescence intensity)", "setting": "[4]", "result": 23700}, {"measurement": "EC50 in the degranulation on LAD 2", "setting": "[5]", "result": 13, "unit": "nM"}, {"measurement": "degranulation of LAD 2 (beta-hexosaminidase release, % of total) at 3 nM", "setting": "[5]", "result": 6.3, "unit": "%"}, {"measurement": "degranulation of LAD 2 (beta-hexosaminidase release, % of total) at 10 nM", "setting": "[5]", "result": 30.7, "unit": "%"}, {"measurement": "degranulation of LAD 2 (beta-hexosaminidase release, % of total) at 30 nM", "setting": "[5]", "result": 52.1, "unit": "%"}, {"measurement": "degranulation of LAD 2 (beta-hexosaminidase release, % of total) at 100 nM", "setting": "[5]", "result": 65.2, "unit": "%"}, {"measurement": "degranulation of LAD 2 (beta-hexosaminidase release, % of total) at 300 nM", "setting": "[5]", "result": 67.7, "unit": "%"}, {"measurement": "degranulation of LAD 2 (beta-hexosaminidase release, % of total) at 1 µM", "setting": "[5]", "result": 69.3, "unit": "%"}, {"measurement": "maximum activity in the calcium increasing effect (FLIPR), RBL2H3-TGR12, at 1 nM (fluorescence intensity)", "setting": "[5]", "result": 41}, {"measurement": "maximum activity in the calcium increasing effect (FLIPR), RBL2H3-TGR12, at 10 nM (fluorescence intensity)", "setting": "[5]", "result": 2090}, {"measurement": "maximum activity in the calcium increasing effect (FLIPR), RBL2H3-TGR12, at 100 nM (fluorescence intensity)", "setting": "[5]", "result": 11100}, {"measurement": "maximum activity in the calcium increasing effect (FLIPR), RBL2H3-TGR12, at 1 µM (fluorescence intensity)", "setting": "[5]", "result": 12000}, {"measurement": "maximum activity in the calcium increasing effect (FLIPR), RBL2H3-TGR12, at 10 µM (fluorescence intensity)", "setting": "[5]", "result": 12300}]}
{"molecule": "DRMPCRNFFWKTFSSCK (peptide, UniProt O00230 89-105, looked up, not fully specified; ends and bridges not checked)", "note": "[human cortistatin-17]", "values": [{"measurement": "maximum activity in the calcium increasing effect (FLIPR), CHO-TGR12, at 0.3 nM", "setting": "[6]", "result": 67, "unit": "fluorescence intensity"}, {"measurement": "maximum activity in the calcium increasing effect (FLIPR), CHO-TGR12, at 3 nM", "setting": "[6]", "result": 54, "unit": "fluorescence intensity"}, {"measurement": "maximum activity in the calcium increasing effect (FLIPR), CHO-TGR12, at 30 nM", "setting": "[6]", "result": 94, "unit": "fluorescence intensity"}, {"measurement": "maximum activity in the calcium increasing effect (FLIPR), CHO-TGR12, at 300 nM", "setting": "[6]", "result": 17900, "unit": "fluorescence intensity"}, {"measurement": "maximum activity in the calcium increasing effect (FLIPR), CHO-TGR12, at 3000 nM", "setting": "[6]", "result": 23600, "unit": "fluorescence intensity"}, {"measurement": "degranulation of LAD 2 (beta-hexosaminidase release, % of total) at 10 nM", "setting": "[5]", "result": 1.6, "unit": "%"}, {"measurement": "degranulation of LAD 2 (beta-hexosaminidase release, % of total) at 30 nM", "setting": "[5]", "result": 2.8, "unit": "%"}, {"measurement": "degranulation of LAD 2 (beta-hexosaminidase release, % of total) at 100 nM", "setting": "[5]", "result": 26.5, "unit": "%"}, {"measurement": "degranulation of LAD 2 (beta-hexosaminidase release, % of total) at 300 nM", "setting": "[5]", "result": 52.8, "unit": "%"}, {"measurement": "degranulation of LAD 2 (beta-hexosaminidase release, % of total) at 1 µM", "setting": "[5]", "result": 62.2, "unit": "%"}, {"measurement": "degranulation of LAD 2 (beta-hexosaminidase release, % of total) at 3 µM", "setting": "[5]", "result": 58.9, "unit": "%"}, {"measurement": "maximum activity in the calcium increasing effect (FLIPR), RBL2H3-TGR12, at 1 nM", "setting": "[5]", "result": -2, "unit": "fluorescence intensity"}, {"measurement": "maximum activity in the calcium increasing effect (FLIPR), RBL2H3-TGR12, at 10 nM", "setting": "[5]", "result": 33, "unit": "fluorescence intensity"}, {"measurement": "maximum activity in the calcium increasing effect (FLIPR), RBL2H3-TGR12, at 100 nM", "setting": "[5]", "result": 1570, "unit": "fluorescence intensity"}, {"measurement": "maximum activity in the calcium increasing effect (FLIPR), RBL2H3-TGR12, at 1 µM", "setting": "[5]", "result": 11200, "unit": "fluorescence intensity"}, {"measurement": "maximum activity in the calcium increasing effect (FLIPR), RBL2H3-TGR12, at 10 µM", "setting": "[5]", "result": 12800, "unit": "fluorescence intensity"}]}
